# Data: US12576050B2, “Dosage regime” (priority 2018, dated 2026)
# B1: DNAse I (Pulmozyme): DNAse I (Pulmozyme) added at physiological concentration to sputum (protein, UniProt P24855 23-282, looked up)
# Deoxyribonuclease-1: LKIAAFNIQTFGETKMSNATLVSYIVQILSRYDIALVQEVRDSHLTAVGKLLDNLNQDAPDTYHYVVSEPLGRNSYKERYLFVYRPDQVSAVDSYYYDDGCEPCGNDTFNREPAIVRFFSRFTEVREFAIVPLHAAPGDAVAEIDALYDVYLDVQEKWGLEDVMLMGDFNAGCSYVRPSQWSSIRLWTSPTFQWLIPDSADTTATPTHCAYDRIVVAGMLLRGAVVPDSALPFNFQAAYGLSDQLAQAISDHYPVEVMLK
# Assay: In vitro mucolysis of patient sputum
# Details: very thick/purulent sputum, patient already on Pulmozyme
# Protocol: Patient had very thick/purulent sputum. The sputum from this patient was responsive to 5% cysteamine DPI formulation. Addition of DNAse I (Pulmozyme) at physiological concentration is having no effect, but this patient is already on Pulmozyme and recently had the dose tripled. The patient's sputum responded to in vitro tests with cysteamine (see FIG. 7). The sputum response was conducted in accordance with the general method outlined in EBioMedicine 2 (2015) 1507-1512 “Cysteamine as a Future Intervention in Cystic Fibrosis Against Current and Emerging Pathogens: A Patient-based ex vivo Study Confirming its Antimicrobial and Mucoactive Potential in Sputum”, Graham Devereux et al.
molecule,measurement,value
B1,Response of patient sputum (mucolysis),no effect
